In the supplement of paper PMC10567573:

B1: C22orf15 (parent)
chain: ITQSWQVSVRVQPRGRAHLLPNPY

Variants of: B1
Experiment: protein stability index of a GFP-peptide fusion (GPS, HEK-293T) (PSI 1-6); higher = more stable
Details: c terminus: a fixed tail appended
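Note: lentivirally expressed fusions sorted by FACS into six bins by GFP to DsRed ratio, PSI derived from sequencing read proportions per bin multiplied by bin number.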

Point of comparison: ITQSWQVSVRVQPRGRAHLLPNQY [P23Q], protein stability index 1.93. Against it:
- ITQSWQVSVRVQPRGRAHHLPNPY [L19H] — lower, 1.92
- ITQSWQVSVRVQPRGRAHRLPNPY [L19R] — higher, 2.43
- ITQSWQVSVRVQPRGRAHDLPNPY [L19D] — lower, 1.82
- ITQSWQVSVRVQPRGRAHPLPNPY [L19P] — lower, 1.78
- ITQSWQVSVRVQPRGRAHNLPNPY [L19N] — lower, 1.49
- ITQSWQVSVRVQPRGRAHMLPNPY [L19M] — higher, 3.54
- ITQSWQVSVRVQPRGRAHCLPNPY [L19C] — higher, 2.07
- ITQSWQVSVRVQPRGRAHVLPNPY [L19V] — lower, 1.6
- ITQSWQVSVRVQPRGRAHTLPNPY [L19T] — higher, 2.62
- ITQSWQVSVRVQPRGRAHKLPNPY [L19K] — higher, 2.33
- ITQSWQVSVRVQPRGRAHGLPNPY [L19G] — higher, 2.23
- ITQSWQVSVRVQPRGRAHALPNPY [L19A] — higher, 2.42
- ITQSWQVSVRVQPRGRAHSLPNPY [L19S] — higher, 2.1
- ITQSWQVSVRVQPRGRAHILPNPY [L19I] — higher, 2.81
- ITQSWQVSVRVQPRGRAHQLPNPY [L19Q] — the same, 1.93
- ITQSWQVSVRVQPRGRAHELPNPY [L19E] — higher, 3.62
- ITQSWQVSVRVQPRGRAHLLDNPY [P21D] — lower, 1.56
- ITQSWQVSVRVQPRGRAHLLRNPY [P21R] — lower, 1.79
- ITQSWQVSVRVQPRGRAHLLYNPY [P21Y] — higher, 2.38
- ITQSWQVSVRVQPRGRAHLLKNPY [P21K] — lower, 1.64
- ITQSWQVSVRVQPRGRAHLLNNPY [P21N] — lower, 1.68
- ITQSWQVSVRVQPRGRAHLLVNPY [P21V] — higher, 1.94
- ITQSWQVSVRVQPRGRAHLLHNPY [P21H] — higher, 2.78
- ITQSWQVSVRVQPRGRAHLLQNPY [P21Q] — lower, 1.52
- ITQSWQVSVRVQPRGRAHLLGNPY [P21G] — lower, 1.76
- ITQSWQVSVRVQPRGRAHLLSNPY [P21S] — lower, 1.7
- ITQSWQVSVRVQPRGRAHLLTNPY [P21T] — higher, 2.87
- ITQSWQVSVRVQPRGRAHLLENPY [P21E] — lower, 1.6
- ITQSWQVSVRVQPRGRAHLLANPY [P21A] — lower, 1.29
- ITQSWQVSVRVQPRGRAHLLINPY [P21I] — lower, 1.91
- ITQSWQVSVRVQPRGRAHLLLNPY [P21L] — higher, 2.04
- ITQSWQVSVRVQPRGRAHLLCNPY [P21C] — higher, 3.18
- ITQSWQVSVRVQPRDRAHLLPNPY [G15D] — higher, 1.94
- ITQSWQVSVRVQPRHRAHLLPNPY [G15H] — higher, 2.03
- ITQSWQVSVRVQPRVRAHLLPNPY [G15V] — higher, 2.31
- ITQSWQVSVRVQPRARAHLLPNPY [G15A] — higher, 4.31
- ITQSWQVSVRVQPRPRAHLLPNPY [G15P] — higher, 3.81
- ITQSWQVSVRVQPRYRAHLLPNPY [G15Y] — lower, 1.77
- ITQSWQVSVRVQPRFRAHLLPNPY [G15F] — higher, 1.97
- ITQSWQVSVRVQPRNRAHLLPNPY [G15N] — higher, 3.33
- ITQSWQVSVRVQPRERAHLLPNPY [G15E] — higher, 2.02
- ITQSWQVSVRVQPRTRAHLLPNPY [G15T] — lower, 1.51
- ITQSWQVSVRVQPRRRAHLLPNPY [G15R] — lower, 1.73
- ITQSWQVSVRVQPRKRAHLLPNPY [G15K] — higher, 2.31
- ITQSWQVSVRVQPRCRAHLLPNPY [G15C] — higher, 1.97
- ITQSWQVSVRVQPRQRAHLLPNPY [G15Q] — lower, 1.48
- ITQSWQVSVRVQPRWRAHLLPNPY [G15W] — higher, 4.12
- ITQSWQVSVRVQPRGRAHLLPFPY [N22F] — lower, 1.49
- ITQSWQVSVRVQPRGRAHLLPTPY [N22T] — lower, 1.89
- ITQSWQVSVRVQPRGRAHLLPYPY [N22Y] — higher, 2.09
- ITQSWQVSVRVQPRGRAHLLPQPY [N22Q] — higher, 2.43
- ITQSWQVSVRVQPRGRAHLLPSPY [N22S] — higher, 4.3
- ITQSWQVSVRVQPRGRAHLLPHPY [N22H] — lower, 1.75
- ITQSWQVSVRVQPRGRAHLLPAPY [N22A] — higher, 2.85
- ITQSWQVSVRVQPRGRAHLLPDPY [N22D] — lower, 1.62
- ITQSWQVSVRVQPRGRAHLLPRPY [N22R] — higher, 2.33
- ITQSWQVSVRVQPRGRAHLLPVPY [N22V] — lower, 1.75
- ITQSWQVSVRVQPRGRAHLLPMPY [N22M] — lower, 1.88
- ITQSWQVSVRVQPRGRAHLLPIPY [N22I] — higher, 2.39
- ITQSWQVSVRVQPRGRAHLLPKPY [N22K] — higher, 2.17
- ITQSWQVSVRVQPRGRAHLLPLPY [N22L] — higher, 3.15
- ITQSWQVSVRVQPRGRAHLLPPPY [N22P] — lower, 1.17
- ITQSWQVSVRVQPRGRAHLLPEPY [N22E] — lower, 1.59
- ITQSWQVSVRVQPRGRAHLLPNIY [P23I] — higher, 2.08
- ITQSWQVSVRVQPRGRAHLLPNCY [P23C] — lower, 1.6
- ITQSWQVSVRVQPRGRAHLLPNSY [P23S] — lower, 1.92
- ITQSWQVSVRVQPRGRAHLLPNRY [P23R] — lower, 1.87
- ITQSWQVSVRVQPRGRAHLLPNKY [P23K] — higher, 2.09
- ITQSWQVSVRVQPRGRAHLLPNGY [P23G] — lower, 1.32
- ITQSWQVSVRVQPRGRAHLLPNHY [P23H] — lower, 1.27
- ITQSWQVSVRVQPRGRAHLLPNWY [P23W] — lower, 1.11
- ITQSWQVSVRVQPRGRAHLLPNEY [P23E] — lower, 1.51
- ITQSWQVSVRVQPRGRAHLLPNAY [P23A] — lower, 1.34
- ITQSWQVSVRVQPRGRAHLLPNFY [P23F] — higher, 3.34
- ITQSWQVSVRVQPRGRAHLLPNDY [P23D] — lower, 1.42
- ITQSWQVSVRVQPRGRAHLLPNNY [P23N] — higher, 3.05
- ITQSWQVSVRVQPRGRAHLLPNLY [P23L] — lower, 1.46
- ITQSWQVSVRVQPRGRATLLPNPY [H18T] — higher, 2.13
- ITQSWQVSVRVQPRGRAELLPNPY [H18E] — lower, 1.36
- ITQSWQVSVRVQPRGRAVLLPNPY [H18V] — higher, 2.19
- ITQSWQVSVRVQPRGRAQLLPNPY [H18Q] — higher, 2.99
- ITQSWQVSVRVQPRGRALLLPNPY [H18L] — higher, 3.13
- ITQSWQVSVRVQPRGRAALLPNPY [H18A] — higher, 2.9
- ITQSWQVSVRVQPRGRAKLLPNPY [H18K] — lower, 1.74
- ITQSWQVSVRVQPRGRANLLPNPY [H18N] — higher, 2.99
- ITQSWQVSVRVQPRGRACLLPNPY [H18C] — lower, 1.49
- ITQSWQVSVRVQPRGRAPLLPNPY [H18P] — higher, 2.7
- ITQSWQVSVRVQPRGRAILLPNPY [H18I] — lower, 1.29
- ITQSWQVSVRVQPRGRADLLPNPY [H18D] — higher, 2.29
- ITQSWQVSVRVQPRGRAYLLPNPY [H18Y] — higher, 1.95
- ITQSWQVSVRVQPRGRASLLPNPY [H18S] — lower, 1.43
- ITQSWQVSVRVQPRGRAMLLPNPY [H18M] — lower, 1.83
- ITQSWQVSVRVQPRGRAHLKPNPY [L20K] — lower, 1.01
